Measurements: the Immune Epitope Database (IEDB)
pIC50, pKd: −log10 of the molar value.

Experiments:
HLA-A*01:01 [1] = test: IEDB peptide-MHC binding, purified MHC/direct/fluorescence; filed as Kd, often an IC50 or EC50 that approximates it; ≥ and ≤ were set here for values at or beyond the usual limits of such assays; details: source organism: Bacillus anthracis
HLA-A*02:01 [2] = test: as above
HLA-A*03:01 = test: as above
HLA-A*11:01 [3] = test: as above; details: source organism: Bacillus anthracis
HLA-A*26:02 [4] = test: as above; details: source organism: Picosynechococcus sp. PCC 7002
HLA-A*26:03 = test: as above
HLA-A*31:01 = test: as above; details: source organism: Bacillus anthracis
HLA-A*69:01 = test: as above; details: source organism: Bacillus anthracis
HLA-B*07:02 = test: as above; details: source organism: Bacillus anthracis
HLA-B*08:01 = test: as above; details: source organism: Picosynechococcus sp. PCC 7002
HLA-B*15:01 = test: as above
HLA-B*27:05 = test: as above; details: source organism: Bacillus anthracis
HLA-B*39:01 = test: as above; details: source organism: Picosynechococcus sp. PCC 7002
HLA-B*40:01 = test: as above; details: source organism: Bacillus anthracis
HLA-B*46:01 = test: as above
HLA-B*48:01 = test: as above; details: source organism: Bacillus anthracis
HLA-B*57:01 [5] = test: as above
HLA-B*58:01 = test: as above; details: source organism: Bacillus anthracis
HLA-A*02:03 [6] = test: IEDB peptide-MHC binding, purified MHC/competitive/fluorescence; filed as Kd, often an IC50 or EC50 that approximates it; ≥ and ≤ were set here for values at or beyond the usual limits of such assays
HLA-B*15:17 = test: as above
HLA-A*01:01 [7] = test: as above; details: source organism: Human immunodeficiency virus 1
HLA-A*02:06 = test: as above; details: source organism: Human immunodeficiency virus 1
HLA-A*11:01 [8] = test: as above; details: source organism: Human immunodeficiency virus 1
HLA-A*26:02 [9] = test: as above; details: source organism: Human immunodeficiency virus 1
HLA-A*30:01 = test: as above; details: source organism: Human immunodeficiency virus 1
HLA-B*18:01 = test: as above; details: source organism: Human immunodeficiency virus 1
HLA-B*57:01 [10] = test: as above; details: source organism: Human immunodeficiency virus 1
HLA-A*02:03 [11] = test: IEDB peptide-MHC binding, purified MHC/direct/fluorescence; filed as Kd, often an IC50 or EC50 that approximates it; ≥ and ≤ were set here for values at or beyond the usual limits of such assays; details: source organism: Cryptosporidium parvum Iowa II
HLA-A*02:11 = test: as above; details: source organism: Cryptosporidium parvum Iowa II
HLA-A*02:12 = test: as above; details: source organism: Cryptosporidium parvum Iowa II
HLA-A*02:16 = test: as above; details: source organism: Cryptosporidium parvum Iowa II
HLA-A*02:19 = test: as above; details: source organism: Cryptosporidium parvum Iowa II
HLA-A*23:01 = test: as above; details: source organism: Cryptosporidium parvum Iowa II
HLA-A*24:03 = test: as above; details: source organism: Cryptosporidium parvum Iowa II
HLA-A*26:01 = test: as above; details: source organism: Cryptosporidium parvum Iowa II
HLA-A*29:02 = test: as above; details: source organism: Cryptosporidium parvum Iowa II
HLA-B*27:03 = test: as above; details: source organism: Cryptosporidium parvum Iowa II
HLA-B*51:01 = test: as above; details: source organism: Cryptosporidium parvum Iowa II
HLA-C*05:01 = test: as above; details: source organism: Cryptosporidium parvum Iowa II
HLA-A*68:23 = test: IEDB peptide-MHC binding, purified MHC/competitive/fluorescence; filed as Kd, often an IC50 or EC50 that approximates it; ≥ and ≤ were set here for values at or beyond the usual limits of such assays; details: source organism: Cryptosporidium parvum Iowa II
HLA-B*15:42 = test: as above
HLA-B*45:06 = test: as above
HLA-B*83:01 = test: as above
HLA-C*14:02 = test: as above; details: source organism: Cryptosporidium parvum Iowa II
HLA-A*32:07 = test: as above; details: source organism: Mycobacterium tuberculosis C
HLA-A*02:01 [12] = test: IEDB peptide-MHC binding, purified MHC/competitive/fluorescence; ≥ and ≤ were set here for values at or beyond the usual limits of such assays; details: source organism: Monodelphis domestica
HLA-A*68:02 = test: as above; details: source organism: Monodelphis domestica
HLA-C*08:02 = test: IEDB peptide-MHC binding, purified MHC/direct/fluorescence; filed as Kd, often an IC50 or EC50 that approximates it; ≥ and ≤ were set here for values at or beyond the usual limits of such assays; details: source organism: Hylobates lar
[13] = source organism: Bacillus anthracis
[14] = source organism: Bacillus anthracis str. A0488
[15] = source organism: Human immunodeficiency virus 1
[16] = source organism: Cryptosporidium parvum Iowa II
[17] = source organism: Mycobacterium tuberculosis C

DTVLFNAGL
pKd (HLA-A*01:01 [1]): ≤ 4.70 | pKd (HLA-A*02:01 [2]; [13]): ≤ 4.70 | pKd (HLA-A*03:01; [13]): ≤ 4.70 | pKd (HLA-A*11:01 [3]): ≤ 4.70 | pKd (HLA-A*26:02 [4]): 7.39 | pKd (HLA-A*26:03; source organism: Picosynechococcus sp. PCC 7002): 7.27 | pKd (HLA-A*31:01): ≤ 4.70 | pKd (HLA-A*69:01): ≥ 9.00 | pKd (HLA-B*07:02): ≤ 4.70 | pKd (HLA-B*08:01): ≤ 4.70 | pKd (HLA-B*15:01; [13]): ≤ 4.70 | pKd (HLA-B*27:05): ≤ 4.70 | pKd (HLA-B*39:01): ≤ 4.70 | pKd (HLA-B*40:01): ≤ 4.70 | pKd (HLA-B*46:01; [13]): ≤ 4.70 | pKd (HLA-B*48:01): ≤ 4.70 | pKd (HLA-B*57:01 [5]; [13]): ≤ 4.70 | pKd (HLA-B*58:01): ≤ 4.70 | pKd (HLA-A*02:03 [6]; [14]): ≤ 4.70 | pKd (HLA-B*15:17; [14]): ≤ 4.70

GTIIAHGGL
pKd (HLA-A*26:03; source organism: Rickettsia prowazekii): ≤ 4.70

KSLFNTIATLY
pKd (HLA-A*01:01 [7]): 5.99 | pKd (HLA-A*02:03 [6]; [15]): 5.72 | pKd (HLA-A*02:06): 6.60 | pKd (HLA-A*11:01 [8]): 6.96 | pKd (HLA-A*26:02 [9]): ≤ 4.70 | pKd (HLA-A*30:01): ≤ 4.70 | pKd (HLA-B*15:17; [15]): 8.66 | pKd (HLA-B*18:01): 6.55 | pKd (HLA-B*57:01 [10]): 6.94

MPMSMPIPM
pKd (HLA-A*02:01 [2]; [16]): ≤ 4.70 | pKd (HLA-A*02:03 [11]): ≤ 4.70 | pKd (HLA-A*02:11): ≤ 4.70 | pKd (HLA-A*02:12): ≤ 4.70 | pKd (HLA-A*02:16): ≤ 4.70 | pKd (HLA-A*02:19): ≤ 4.70 | pKd (HLA-A*03:01; [16]): ≤ 4.70 | pKd (HLA-A*23:01): ≤ 4.70 | pKd (HLA-A*24:03): ≤ 4.70 | pKd (HLA-A*26:01): ≤ 4.70 | pKd (HLA-A*29:02): ≤ 4.70 | pKd (HLA-B*15:01; [16]): ≤ 4.70 | pKd (HLA-B*27:03): ≤ 4.70 | pKd (HLA-B*46:01; [16]): ≤ 4.70 | pKd (HLA-B*51:01): 5.23 | pKd (HLA-B*57:01 [5]; [16]): ≤ 4.70 | pKd (HLA-C*05:01): ≤ 4.70 | pKd (HLA-A*68:23): 8.57 | pKd (HLA-B*15:42; [16]): ≤ 5.30 | pKd (HLA-B*45:06; [16]): ≤ 5.30 | pKd (HLA-B*83:01; [16]): 7.40 | pKd (HLA-C*14:02): 6.90

RIRAANLPI
pKd (HLA-A*32:07): 7.48 | pKd (HLA-B*15:42; [17]): ≤ 5.30 | pKd (HLA-B*45:06; [17]): ≤ 5.30 | pKd (HLA-B*83:01; [17]): ≤ 5.30

YSLEYFQFV
pIC50 (HLA-A*02:01 [12]): 7.23 | pIC50 (HLA-A*68:02): 6.97 | pKd (HLA-C*08:02): ≤ 4.70
